Data as given in PMC5373596, “Metal-dependent SpoIIE oligomerization stabilizes FtsZ during asymmetric division in Bacillus subtilis” (PLoS ONE, 2017).

B3: strep-tagged-SpoIIEcyt (cytoplasmic part of SpoIIE, MBP removed) (domain or fragment, B. subtilis 168, UniProt P37475 326-827, looked up)
chain: RKVARYIPGTVEHLQEQQQYARKIRDVTAQKVDQFSNVFHALSESFATFYQASDEQTDDSEVDLFLSKITEHSCQTCYKKNRCWVQNFDKTYDLMKQVMLETEEKEYASNRRLKKEFQQYCSKSKQVEELIEDELAHHHAHLTLKKKVQDSRRLVAEQLLGVSEVMADFSREIKREREQHFLQEEQIIEALQHFGIEIQHVEIYSLEQGNIDIEMTIPFSGHGESEKIIAPMLSDILEEQILVKAEQHSPHPNGYSHVAFGSTKSYRVSTGAAHAAKGGGLVSGDSYSMMELGARKYAAAISDGMGNGARAHFESNETIKLLEKILESGIDEKIAIKTINSILSLRTTDEIYSTLDLSIIDLQDASCKFLKVGSTPSFIKRGDQVMKVQASNLPIGIINEFDVEVVSEQLKAGDLLIMMSDGIFEGPKHVENHDLWMKRKMKGLKTNDPQEIADLLMEEVIRTRSGQIEDDMTVVVVRIDHNTPKWASIPVPAIFQNKQEIS
notes: SpoIIE of Bacillus subtilis 168, domains II and III (cytoplasmic part), amino acids 326-827; called a 501 residue fragment; also called s-SpoIIEcyt; strep-SpoIIEcyt; not shown: MBP, N-terminal, cleaved; strep-tag, N-terminal, kept

Tests used:
[1] = molecular target: B3; assay: 90° light scattering; 10 μM FtsZ and/or 1.5 μM s-SpoIIEcyt in 50 mM Tris/HCl pH 7.5, 300 mM KCl, 10 mM MgCl2; 2 mM GTP or GDP added after 90 s; 30°C; controls of FtsZ alone with Mn2+ or EDTA; settings: both partners purified
[2] = molecular target: the molecule itself; assay: as above
[3] = molecular target: the molecule itself; assay: co-sedimentation; 10 μM ms-SpoIIEcyt in 50 mM MES/NaOH pH 6.5, 50 mM KCl; after 1 mM EDTA, 5 mM MnCl2 added for 30 min; spun at 186,000 x g, supernatant and pellet on SDS-PAGE
[4] = molecular target: the molecule itself; assay: transmission electron microscopy; 10 μM FtsZ with or without 1.5 μM s-SpoIIEcyt, or 1.5 μM s-SpoIIEcyt alone with 10 mM MnCl2, in 50 mM Tris/HCl pH 7.5, 300 mM KCl with 1 mM EDTA or 10 mM MgCl2 or 10 mM MnCl2; GTP or GDP; samples taken after 30 min at 30°C

B1: FtsZ (natural protein, B. subtilis, UniProt P17865 1-382, looked up)
chain: MLEFETNIDGLASIKVIGVGGGGNNAVNRMIENEVQGVEYIAVNTDAQALNLSKAEVKMQIGAKLTRGLGAGANPEVGKKAAEESKEQIEEALKGADMVFVTAGMGGGTGTGAAPVIAQIAKDLGALTVGVVTRPFTFEGRKRQLQAAGGISAMKEAVDTLIVIPNDRILEIVDKNTPMLEAFREADNVLRQGVQGISDLIATPGLINLDFADVKTIMSNKGSALMGIGIATGENRAAEAAKKAISSPLLEAAIDGAQGVLMNITGGTNLSLYEVQEAADIVASASDQDVNMIFGSVINENLKDEIVVTVIATGFIEQEKDVTKPQRPSLNQSIKTHNQSVPKREPKREEPQQQNTVSRHTSQPADDTLDIPTFLRNRNKRG
notes: Cell division protein FtsZ of Bacillus subtilis; source: purified as described [25], > 95% purity
binding result [1]: binds
binding result [2]: binds

B2: MBP-strep-tag-SpoIIEcyt fusion protein (cytoplasmic part of SpoIIE, domains II and III) (domain or fragment, B. subtilis 168, UniProt P37475 326-827, looked up)
chain: RKVARYIPGTVEHLQEQQQYARKIRDVTAQKVDQFSNVFHALSESFATFYQASDEQTDDSEVDLFLSKITEHSCQTCYKKNRCWVQNFDKTYDLMKQVMLETEEKEYASNRRLKKEFQQYCSKSKQVEELIEDELAHHHAHLTLKKKVQDSRRLVAEQLLGVSEVMADFSREIKREREQHFLQEEQIIEALQHFGIEIQHVEIYSLEQGNIDIEMTIPFSGHGESEKIIAPMLSDILEEQILVKAEQHSPHPNGYSHVAFGSTKSYRVSTGAAHAAKGGGLVSGDSYSMMELGARKYAAAISDGMGNGARAHFESNETIKLLEKILESGIDEKIAIKTINSILSLRTTDEIYSTLDLSIIDLQDASCKFLKVGSTPSFIKRGDQVMKVQASNLPIGIINEFDVEVVSEQLKAGDLLIMMSDGIFEGPKHVENHDLWMKRKMKGLKTNDPQEIADLLMEEVIRTRSGQIEDDMTVVVVRIDHNTPKWASIPVPAIFQNKQEIS
notes: SpoIIE of Bacillus subtilis 168, domains II and III (cytoplasmic part), amino acids 326-827; called a 501 residue fragment; Order on the chain: MBP (from pMalC2x), short strep-tag, SpoIIE 326-827; Co-purifies with about 2 Fe per protein; also called ms-SpoIIEcyt; source: E. coli BL21-RIL, purified (amylose resin, eluted with maltose); not shown: MBP, N-terminal, kept; strep-tag, N-terminal, kept
binding result [3]: binds

B3
binding result [4]: binds
